Experimental data as given in PMC5340378, “The DRF motif of CXCR6 as chemokine receptor adaptation to adhesion” (PLoS ONE, 2017).

How the values were obtained:
[1] = molecular target: human CXCR6[DRF] (CXC-chemokine receptor 6, wild type with the DRF motif) (human, UniProt O00574 1-342); assay: cell-based or functional assay
[2] = molecular target: T1, human CXCR6[DRY] (DRF motif mutated to DRY) (human, UniProt O00574 1-342, DRF to DRY (F128^3.51)); assay: cell-based or functional assay
T1 sequence (looked up): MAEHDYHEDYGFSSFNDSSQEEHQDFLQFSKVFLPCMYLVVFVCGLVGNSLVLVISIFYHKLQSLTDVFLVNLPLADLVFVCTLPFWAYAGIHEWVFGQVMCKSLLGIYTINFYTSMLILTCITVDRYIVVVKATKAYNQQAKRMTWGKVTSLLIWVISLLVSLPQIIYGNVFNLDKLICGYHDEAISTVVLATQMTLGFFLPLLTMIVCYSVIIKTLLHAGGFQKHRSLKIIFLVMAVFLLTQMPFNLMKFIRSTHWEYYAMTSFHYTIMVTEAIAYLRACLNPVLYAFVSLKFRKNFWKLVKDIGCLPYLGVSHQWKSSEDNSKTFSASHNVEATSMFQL

adhesion of THP-1 cells expressing the receptor to immobilized CXCL16-Fc for 30 min, normalized to cells adhering to anti-human-Fc [1]: ~4 fold
adhesion of THP-1 cells to immobilized CXCL16-Fc for 5, 15 and 30 min, CXCR6[DRF] cells compared to CXCR6[DRY] cells [1]: 2 fold
adhesion of THP-1 cells expressing the receptor to immobilized CXCL16-Fc for 30 min, normalized to cells adhering to anti-human-Fc [2]: ~4 fold
B1: human CXCL16-Fc fusion protein (Fc fusion, UniProt Q9H2A7 30-205, looked up)
chain: NEGSVTGSCYCGKRISSDSPPSVQFMNRLRKHLRAYHRCLYYTRFQLLSWSVCGGNKDPWVQELMSCLDLKECGHAYSGIVAHQKHLLPTSPPISQASEGASSDIHTPAQMLLSTLQSTQRPTLPVGSLSSDKELTRPNETTIHTAGHSLAAGPEAGENQKQPEKNAGPTARTSAT
